Experimental data from PMC3349339 (Journal of Molecular Biology, 2012).

The substances below were run against HLA-DR1 with a His→Asn substitution at position β81 (human) (assay: not given).
“HA peptide P1 L (from UniProt P03437 322-334)” showed a Kd of 67.9 nM.
“HA peptide P1 V (from UniProt P03437 322-334)” was tested, and the Kd was 89.4 nM.
Substance “HA peptide P1,9 LA (from UniProt P03437 322-334)” has a Kd of 206 nM.
Work on “HA peptide P1,9 LS (from UniProt P03437 322-334)” yielded a Kd of 1880 nM.
In the case of “HA peptide P1,9 VA (from UniProt P03437 322-334)”, the Kd is reported as 739 nM.
In the case of “HA peptide P1,9 VS (from UniProt P03437 322-334)”, the Kd is reported as 8170 nM.
In the case of “HA peptide P9 A (from UniProt P03437 322-334)”, the Kd is reported as 126 nM.
With “HA peptide P9 S (from UniProt P03437 322-334)” the Kd was 130 nM.

The substances below were run against HLA-DR1 with a His→Asn substitution at position β81 (human) (assay: fluorescence polarisation).
In the case of “fluorescein-labelled HA peptide P1 L (from UniProt P03437 322-334)”, the t1/2 is reported as 55.6 h.
In the case of “fluorescein-labelled HA peptide P1 V (from UniProt P03437 322-334)”, the t1/2 is reported as 47.9 h.
Substance “fluorescein-labelled HA peptide P1,9 LA (from UniProt P03437 322-334)” has a t1/2 of 34 h.
In the case of “fluorescein-labelled HA peptide P1,9 LS (from UniProt P03437 322-334)”, the t1/2 is reported as 5.93 h.
With “fluorescein-labelled HA peptide P1,9 VA (from UniProt P03437 322-334)” the t1/2 was 14.4 h.
“fluorescein-labelled HA peptide P1,9 VS (from UniProt P03437 322-334)” showed a t1/2 of 1.65 h.
“fluorescein-labelled HA peptide P9 A (from UniProt P03437 322-334)” showed a t1/2 of 43.6 h.
With “fluorescein-labelled HA peptide P9 S (from UniProt P03437 322-334)” the t1/2 was 19.3 h.
